Test results: patent publication US20170275666A1, “Methods for Preparing Rebaudioside I and Uses” (The Coca-Cola Company, priority 2014, published 2017)

Assay: Directed evolution of UGT76G1, conversion of Rebaudioside D to Rebaudioside M (round 1)
Assay type: biochemical
Conditions: 0.5 mM Rebaudioside D, 2.5 mM UDP-Glucose, 100 μL fresh lysate, 30° C., pH 7.2
How it was run: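 UGT76G1 variants carrying 3-5 designed mutations were expressed in E. coli BL21(DE3) (pET30a+, 44 h at 20° C) and lysed. Lysate was reacted with 0.5 mM Reb D, 2.5 mM UDP-glucose, 3 mM MgCl2 in 50 mM phosphate pH 7.2 at 30° C; HPLC-CAD sampling at 2, 4, 7, 24 h gave conversion and initial rate.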

| Molecule | Conversion Reb D to Reb M after 24 h (%) | initial rate (Reb M area/min) |
| --- | --- | --- |
| UGT76G1var76: UGT76G1 variant, mutations F22Y_A239I_L246F_I295M_R334K (protein, UniProt Q6VAB4 1-458, looked up, variant F22Y A239I L246F I295M R334K) UDP-glycosyltransferase 76G1: MENKTETTVRRRRRIILFPVPYQGHINPILQLANVLYSKGFSITIFHTNFNKPKTSNYPHFTFRFILDNDPQDERISNLPTHGPLAGMRIPIINEHGADELRRELELLMLASEEDEEVSCLITDALWYFAQSVADSLNLRRLVLMTSSLFNFHAHVSLPQFDELGYLDPDDKTRLEEQASGFPMLKVKDIKSAYSNWQILKEILGKMIKQTKASSGVIWNSFKELEESELETVIREIPIPSFLIPFPKHLTASSSSLLDHDRTVFQWLDQQPPSSVLYVSFGSTSEVDEKDFLEMARGLVDSKQSFLWVVRPGFVKGSTWVEPLPDGFLGERGKIVKWVPQQEVLAHGAIGAFWTHSGWNSTLESVCEGVPMIFSDFGLDQPLNARYMSDVLKVGVYLENGWERGEIANAIRRVMVDEEGEYIRQNARVLKQKADVSLMKGGSSYESLESLVSYISSL | 2.6% | 7.2E+05 Reb M area/min |
| UGT76G1var84: UGT76G1 variant, mutations F22L_Q266S_F314S_A352G_S357C (protein, UniProt Q6VAB4 1-458, looked up, variant F22L Q266S F314S A352G S357C) UDP-glycosyltransferase 76G1: MENKTETTVRRRRRIILFPVPLQGHINPILQLANVLYSKGFSITIFHTNFNKPKTSNYPHFTFRFILDNDPQDERISNLPTHGPLAGMRIPIINEHGADELRRELELLMLASEEDEEVSCLITDALWYFAQSVADSLNLRRLVLMTSSLFNFHAHVSLPQFDELGYLDPDDKTRLEEQASGFPMLKVKDIKSAYSNWQILKEILGKMIKQTKASSGVIWNSFKELEESELETVIREIPAPSFLIPLPKHLTASSSSLLDHDRTVFSWLDQQPPSSVLYVSFGSTSEVDEKDFLEIARGLVDSKQSFLWVVRPGSVKGSTWVEPLPDGFLGERGRIVKWVPQQEVLAHGAIGGFWTHCGWNSTLESVCEGVPMIFSDFGLDQPLNARYMSDVLKVGVYLENGWERGEIANAIRRVMVDEEGEYIRQNARVLKQKADVSLMKGGSSYESLESLVSYISSL | 1.2% | 2.3E+05 Reb M area/min |
| UGT76G1var82: UGT76G1 variant, mutations E224D_L243A_F265L_R334H_A352G (protein, UniProt Q6VAB4 1-458, looked up, variant E224D L243A F265L R334H A352G) UDP-glycosyltransferase 76G1: MENKTETTVRRRRRIILFPVPFQGHINPILQLANVLYSKGFSITIFHTNFNKPKTSNYPHFTFRFILDNDPQDERISNLPTHGPLAGMRIPIINEHGADELRRELELLMLASEEDEEVSCLITDALWYFAQSVADSLNLRRLVLMTSSLFNFHAHVSLPQFDELGYLDPDDKTRLEEQASGFPMLKVKDIKSAYSNWQILKEILGKMIKQTKASSGVIWNSFKDLEESELETVIREIPAPSFAIPLPKHLTASSSSLLDHDRTVLQWLDQQPPSSVLYVSFGSTSEVDEKDFLEIARGLVDSKQSFLWVVRPGFVKGSTWVEPLPDGFLGERGHIVKWVPQQEVLAHGAIGGFWTHSGWNSTLESVCEGVPMIFSDFGLDQPLNARYMSDVLKVGVYLENGWERGEIANAIRRVMVDEEGEYIRQNARVLKQKADVSLMKGGSSYESLESLVSYISSL | 1.1% | 2.5E+05 Reb M area/min |
| UGT76G1var78: UGT76G1 variant, mutations V279I_V300A_V310I_I335V_S357C (protein, UniProt Q6VAB4 1-458, looked up, variant V279I V300A V310I I335V S357C) UDP-glycosyltransferase 76G1: MENKTETTVRRRRRIILFPVPFQGHINPILQLANVLYSKGFSITIFHTNFNKPKTSNYPHFTFRFILDNDPQDERISNLPTHGPLAGMRIPIINEHGADELRRELELLMLASEEDEEVSCLITDALWYFAQSVADSLNLRRLVLMTSSLFNFHAHVSLPQFDELGYLDPDDKTRLEEQASGFPMLKVKDIKSAYSNWQILKEILGKMIKQTKASSGVIWNSFKELEESELETVIREIPAPSFLIPLPKHLTASSSSLLDHDRTVFQWLDQQPPSSVLYISFGSTSEVDEKDFLEIARGLADSKQSFLWVIRPGFVKGSTWVEPLPDGFLGERGRVVKWVPQQEVLAHGAIGAFWTHCGWNSTLESVCEGVPMIFSDFGLDQPLNARYMSDVLKVGVYLENGWERGEIANAIRRVMVDEEGEYIRQNARVLKQKADVSLMKGGSSYESLESLVSYISSL | 3.2% | 8.2E+05 Reb M area/min |
| UGT76G1var81: UGT76G1 variant, mutations A33G_T263S_S274G_V279I_Y397E (protein, UniProt Q6VAB4 1-458, looked up, variant A33G T263S S274G V279I Y397E) UDP-glycosyltransferase 76G1: MENKTETTVRRRRRIILFPVPFQGHINPILQLGNVLYSKGFSITIFHTNFNKPKTSNYPHFTFRFILDNDPQDERISNLPTHGPLAGMRIPIINEHGADELRRELELLMLASEEDEEVSCLITDALWYFAQSVADSLNLRRLVLMTSSLFNFHAHVSLPQFDELGYLDPDDKTRLEEQASGFPMLKVKDIKSAYSNWQILKEILGKMIKQTKASSGVIWNSFKELEESELETVIREIPAPSFLIPLPKHLTASSSSLLDHDRSVFQWLDQQPPGSVLYISFGSTSEVDEKDFLEIARGLVDSKQSFLWVVRPGFVKGSTWVEPLPDGFLGERGRIVKWVPQQEVLAHGAIGAFWTHSGWNSTLESVCEGVPMIFSDFGLDQPLNARYMSDVLKVGVELENGWERGEIANAIRRVMVDEEGEYIRQNARVLKQKADVSLMKGGSSYESLESLVSYISSL | 15.0% | 6.5E+06 Reb M area/min |
| UGT76G1var5: UGT76G1 variant, mutations F22Y_I373L_P382M (protein, UniProt Q6VAB4 1-458, looked up, variant F22Y I373L P382M) UDP-glycosyltransferase 76G1: MENKTETTVRRRRRIILFPVPYQGHINPILQLANVLYSKGFSITIFHTNFNKPKTSNYPHFTFRFILDNDPQDERISNLPTHGPLAGMRIPIINEHGADELRRELELLMLASEEDEEVSCLITDALWYFAQSVADSLNLRRLVLMTSSLFNFHAHVSLPQFDELGYLDPDDKTRLEEQASGFPMLKVKDIKSAYSNWQILKEILGKMIKQTKASSGVIWNSFKELEESELETVIREIPAPSFLIPLPKHLTASSSSLLDHDRTVFQWLDQQPPSSVLYVSFGSTSEVDEKDFLEIARGLVDSKQSFLWVVRPGFVKGSTWVEPLPDGFLGERGRIVKWVPQQEVLAHGAIGAFWTHSGWNSTLESVCEGVPMLFSDFGLDQMLNARYMSDVLKVGVYLENGWERGEIANAIRRVMVDEEGEYIRQNARVLKQKADVSLMKGGSSYESLESLVSYISSL | 3.5% | 2.3E+06 Reb M area/min |
| UGT76G1var79: UGT76G1 variant, mutations E224D_T284I_V366I_I373L_K393G (protein, UniProt Q6VAB4 1-458, looked up, variant E224D T284I V366I I373L K393G) UDP-glycosyltransferase 76G1: MENKTETTVRRRRRIILFPVPFQGHINPILQLANVLYSKGFSITIFHTNFNKPKTSNYPHFTFRFILDNDPQDERISNLPTHGPLAGMRIPIINEHGADELRRELELLMLASEEDEEVSCLITDALWYFAQSVADSLNLRRLVLMTSSLFNFHAHVSLPQFDELGYLDPDDKTRLEEQASGFPMLKVKDIKSAYSNWQILKEILGKMIKQTKASSGVIWNSFKDLEESELETVIREIPAPSFLIPLPKHLTASSSSLLDHDRTVFQWLDQQPPSSVLYVSFGSISEVDEKDFLEIARGLVDSKQSFLWVVRPGFVKGSTWVEPLPDGFLGERGRIVKWVPQQEVLAHGAIGAFWTHSGWNSTLESICEGVPMLFSDFGLDQPLNARYMSDVLGVGVYLENGWERGEIANAIRRVMVDEEGEYIRQNARVLKQKADVSLMKGGSSYESLESLVSYISSL | 8.5% | 3.8E+06 Reb M area/min |
| UGT76G1var80: UGT76G1 variant, mutations L243P_L379A_S389E_Q425E_Q432E (protein, UniProt Q6VAB4 1-458, looked up, variant L243P L379A S389E Q425E Q432E) UDP-glycosyltransferase 76G1: MENKTETTVRRRRRIILFPVPFQGHINPILQLANVLYSKGFSITIFHTNFNKPKTSNYPHFTFRFILDNDPQDERISNLPTHGPLAGMRIPIINEHGADELRRELELLMLASEEDEEVSCLITDALWYFAQSVADSLNLRRLVLMTSSLFNFHAHVSLPQFDELGYLDPDDKTRLEEQASGFPMLKVKDIKSAYSNWQILKEILGKMIKQTKASSGVIWNSFKELEESELETVIREIPAPSFPIPLPKHLTASSSSLLDHDRTVFQWLDQQPPSSVLYVSFGSTSEVDEKDFLEIARGLVDSKQSFLWVVRPGFVKGSTWVEPLPDGFLGERGRIVKWVPQQEVLAHGAIGAFWTHSGWNSTLESVCEGVPMIFSDFGADQPLNARYMEDVLKVGVYLENGWERGEIANAIRRVMVDEEGEYIRENARVLKEKADVSLMKGGSSYESLESLVSYISSL | 1.0% | 2.1E+05 Reb M area/min |
| UGT76G1var77: UGT76G1 variant, mutations A239V_F265I_I295T_D301N_K393G (protein, UniProt Q6VAB4 1-458, looked up, variant A239V F265I I295T D301N K393G) UDP-glycosyltransferase 76G1: MENKTETTVRRRRRIILFPVPFQGHINPILQLANVLYSKGFSITIFHTNFNKPKTSNYPHFTFRFILDNDPQDERISNLPTHGPLAGMRIPIINEHGADELRRELELLMLASEEDEEVSCLITDALWYFAQSVADSLNLRRLVLMTSSLFNFHAHVSLPQFDELGYLDPDDKTRLEEQASGFPMLKVKDIKSAYSNWQILKEILGKMIKQTKASSGVIWNSFKELEESELETVIREIPVPSFLIPLPKHLTASSSSLLDHDRTVIQWLDQQPPSSVLYVSFGSTSEVDEKDFLETARGLVNSKQSFLWVVRPGFVKGSTWVEPLPDGFLGERGRIVKWVPQQEVLAHGAIGAFWTHSGWNSTLESVCEGVPMIFSDFGLDQPLNARYMSDVLGVGVYLENGWERGEIANAIRRVMVDEEGEYIRQNARVLKQKADVSLMKGGSSYESLESLVSYISSL | 1.9% | 4.4E+05 Reb M area/min |
| UGT76G1var83: UGT76G1 variant, mutations I43V_Q342E_S357N_S375R_L379G (protein, UniProt Q6VAB4 1-458, looked up, variant I43V Q342E S357N S375R L379G) UDP-glycosyltransferase 76G1: MENKTETTVRRRRRIILFPVPFQGHINPILQLANVLYSKGFSVTIFHTNFNKPKTSNYPHFTFRFILDNDPQDERISNLPTHGPLAGMRIPIINEHGADELRRELELLMLASEEDEEVSCLITDALWYFAQSVADSLNLRRLVLMTSSLFNFHAHVSLPQFDELGYLDPDDKTRLEEQASGFPMLKVKDIKSAYSNWQILKEILGKMIKQTKASSGVIWNSFKELEESELETVIREIPAPSFLIPLPKHLTASSSSLLDHDRTVFQWLDQQPPSSVLYVSFGSTSEVDEKDFLEIARGLVDSKQSFLWVVRPGFVKGSTWVEPLPDGFLGERGRIVKWVPQEEVLAHGAIGAFWTHNGWNSTLESVCEGVPMIFRDFGGDQPLNARYMSDVLKVGVYLENGWERGEIANAIRRVMVDEEGEYIRQNARVLKQKADVSLMKGGSSYESLESLVSYISSL | 0.5% | 4.3E+04 Reb M area/min |
